According to patent US20250368686A1, “PEPTIDE DRUGS FOR S[…] D[…] BLOCKING HOMO- AND HETERO-DIMERIZATION OF OPIOID RECEPTORS” (OKINAWA INSTITUTE OF SCIENCE AND TECHNOLOGY SCHOOL …, priority 2022, published 2025):
Blank lines part the entries; values can stand above or below the substance they belong to.

Tests used:
[1] = biological target: SNAPf-DOR: rat DOR with the SNAPf tag protein at its N-terminus, expressed in the PM of CHO-K1 cells (Example 2) (rat) (UniProt P33533); experiment: single-molecule imaging, PCCF fit; copies/um2
[2] = biological target: SNAPf-DOR: rat DOR with the SNAPf tag protein at its N-terminus, expressed in the PM of CHO-K1 cells (Example 2) (rat) (UniProt P33533); experiment: single-molecule imaging, homodimer 2D-KD; copies/um2; + agonist
[3] = biological target: SNAPf-DOR: rat DOR with the SNAPf tag protein at its N-terminus, expressed in the PM of CHO-K1 cells (Example 2) (rat) (UniProt P33533); experiment: single-molecule imaging, homodimer 2D-KD; copies/um2; - agonist
[4] = biological target: µ-type opioid receptor (MOR), rat, wild type, fluorescently tagged, expressed in the PM of CHO-K1 cells (Example 1) (rat) (UniProt P33535); experiment: distribution of colocalisation durations with WT-MOR; single-molecule imaging
[5] = biological target: δ-type opioid receptor (DOR), rat, wild type, fluorescently tagged, expressed in the PM of CHO-K1 cells (Example 1) (rat) (UniProt P33533); experiment: distribution of colocalisation durations with WT-DOR; single-molecule imaging

- Kd [1]: 7.91 ?
- Kd [2]: 3.58 ?
- Kd [3]: 7.91 ?
Substance: SNAPf-DOR: rat DOR with the SNAPf tag protein at its N-terminus, expressed in the PM of CHO-K1 cells (Example 2) (from UniProt P33533 1-372)

- dimer lifetime (τ2) [4]: 88 ms
Substance: DORΔ22-42 (DOR N-terminal deletion mutant) (from UniProt P33533 1-21; P33533 43-372) (receptor)

- dimer lifetime (τ2) [5]: 91 ms
Substance: MORΔ32-61 (MOR N-terminal deletion mutant) (from UniProt P33535 1-31; P33535 62-398) (receptor)
